Non-standard residues stand in square brackets, D forms with d. No end group written: not given here. *: point of attachment. d‑Biotin‑LC = N-terminal biotin (d-Biotin-LC), O=C(CCCC[C@@H]1SC[C@@H]2NC(=O)N[C@@H]21)NCCCCCC(=O)*; pY = N[C@@H](Cc1ccc(OP(=O)(O)O)cc1)C(=O)O
Tests used:
wild type Stat3 [1] = target: T1, wild type Stat3 (Homo sapiens, UniProt P40763); experiment: Phosphopeptide affinity immunoblot (peptide pull-down); assay type: binding; conditions: purified wild type Stat3
T1 construct: made in house; host or cells: Sf9 insect cells (baculovirus, pFastBac1)
T1 sequence (P40763 whole entry): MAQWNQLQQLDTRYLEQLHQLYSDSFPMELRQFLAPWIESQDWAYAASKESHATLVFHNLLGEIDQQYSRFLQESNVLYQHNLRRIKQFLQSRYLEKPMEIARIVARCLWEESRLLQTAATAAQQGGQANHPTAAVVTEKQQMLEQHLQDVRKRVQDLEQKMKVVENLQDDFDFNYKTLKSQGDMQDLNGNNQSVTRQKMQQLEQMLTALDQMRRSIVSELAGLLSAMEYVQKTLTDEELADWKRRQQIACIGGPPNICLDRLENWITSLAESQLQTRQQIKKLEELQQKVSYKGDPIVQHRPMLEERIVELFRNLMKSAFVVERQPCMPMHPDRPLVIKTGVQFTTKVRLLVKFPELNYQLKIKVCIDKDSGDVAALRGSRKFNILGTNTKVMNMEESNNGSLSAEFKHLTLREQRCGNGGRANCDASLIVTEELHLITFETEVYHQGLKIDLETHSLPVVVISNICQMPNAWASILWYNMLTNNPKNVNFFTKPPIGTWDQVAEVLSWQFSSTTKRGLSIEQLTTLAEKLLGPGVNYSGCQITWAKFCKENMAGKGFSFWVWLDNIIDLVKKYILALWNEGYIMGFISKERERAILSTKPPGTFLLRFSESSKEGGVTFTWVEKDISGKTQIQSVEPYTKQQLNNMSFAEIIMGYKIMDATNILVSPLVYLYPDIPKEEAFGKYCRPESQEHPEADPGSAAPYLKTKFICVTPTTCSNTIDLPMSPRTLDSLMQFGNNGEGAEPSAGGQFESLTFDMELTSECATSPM
Experimental: (§1) NeutrAvidin agarose (40 μl; Pierce) was incubated with 10 μg of biotinylated peptide in 300 μl of Buffer A (20 mM HEPES pH 7.5, 20 mM NaF, 1 mM Na3VO4, 1 mM Na4P2O7, 1 mM EDTA, 1 mM EGTA, 20% glycerol, 0.05% NP-40, 1 mM DTT, 1 μg/ml leupeptin, 1 μg/ml aprotinin, 0.5 mM phenylmethylsulfonyl fluoride, 100 mM NaCl) at 4° C. for 2 h and washed with Buffer A 3 times. The NeutrAvidin-peptide complex was then mixed with His-tagged Stat3 protein (5 μg) in 1 ml of Buffer A (without NaCl and NP-40) at 4° C. for 2 h and washed thoroughly. Bound proteins were separated and immunoblotted using Stat3 monoclonal antibody (mAb).
Each peptide was incubated with equal amounts of purified wild type Stat3 protein in peptide pull-down assays (FIG. 1). NeutrAvidin agarose was incubated with the indicated biotinylated peptides (see Table 2 for sequence) or no peptide (CON) as control, washed thoroughly and mixed with identical amount of wild type Stat3. Bound proteins were separated by SDS-PAGE and immunoblotted using Stat3 mAb. Lane ST represents purified wild type Stat3 (0.6 μg) loaded directly onto the gel as positive control. […] Thus, Q at the +3 position of Y1068 phosphopeptide is required for Stat3 binding and appears to be as important for Stat3 binding as phosphorylation on tyrosine. […]

Stat3-4M [2] = target: T2, Stat3-4M (Homo sapiens, UniProt P40763, C687A/Q692L/S691A/Y657F); experiment: as above; assay type: binding; conditions: compared with wild type Stat3
T2 construct: made in house; host or cells: Sf9 insect cells (baculovirus, pFastBac1)
T2 sequence (P40763 whole entry Y657F/C687A/S691A/Q692L): as the sequence (P40763 whole entry) above, with Y657F, C687A, S691A, Q692L counted along it
Experimental: as §1
NeutrAvidin agarose was incubated with the indicated biotinylated peptides (see Table 2 for exemplary sequences) or no peptide (CON) as control, washed thoroughly and mixed with identical amounts of wild type or mutant Stat3 proteins as indicated. Bound proteins were separated by SDS-PAGE and immunoblotted using Stat3 mAb. Lane ST represents purified wild type Stat3 (0.6 μg) loaded directly onto the gel as positive control.
Stat3 proteins in which mutations were introduced to alter side chains from charged or polar to non-polar within amino acid residues were predicted in each model to be critical for Stat3 binding (FIG. 1B). The recombinant Stat3 proteins were expressed in Sf9 insect cells and purified to equivalent levels using Ni-NTA resin (FIG. 1C).

Stat3-3M+K591L = target: T3, Stat3-3M+K591L (Homo sapiens, UniProt P40763, E638L/K591L/Y640F/Y657F); experiment: as above; assay type: binding
T3 construct: made in house; host or cells: Sf9 insect cells (baculovirus, pFastBac1)
T3 sequence (P40763 whole entry K591L/E638L/Y640F/Y657F): as the sequence (P40763 whole entry) above, with K591L, E638L, Y640F, Y657F counted along it
Experimental: as §1
(§2) To test the pocket 1 component of the two models and to ensure that the peptide pull-down system was sufficiently sensitive to detect reduced binding of Stat3 containing mutations in pocket 2, either K591L or R609L was added to the 3M mutant to generate Stat3-3M+K591L and Stat3-3M+R609L.
(§3) To test the pocket 1 component of the two models and to ensure that our peptide pull-down system was sufficiently sensitive to detect reduced binding of Stat3 containing mutations in pocket 2, either K591L or R609L was added to the 3M mutant to generate Stat3-3M+K591L and Stat3-3M+R609L.

Stat3-3M+R609L = target: T4, Stat3-3M+R609L (Homo sapiens, UniProt P40763, E638L/R609L/Y640F/Y657F); experiment: as above; assay type: binding
T4 construct: made in house; host or cells: Sf9 insect cells (baculovirus, pFastBac1)
T4 sequence (P40763 whole entry R609L/E638L/Y640F/Y657F): as the sequence (P40763 whole entry) above, with R609L, E638L, Y640F, Y657F counted along it
Experimental: as §1, §2, §3

Stat3-E638P [3] = target: T5, Stat3-E638P (Homo sapiens, UniProt P40763, E638P); experiment: as above; assay type: binding
T5 construct: made in house; host or cells: Sf9 insect cells (baculovirus)
T5 sequence (P40763 whole entry E638P): as the sequence (P40763 whole entry) above, with E638P counted along it
Experimental: as §1
In FIG. 5C, NeutrAvidin agarose was incubated with the indicated biotinylated dodecapeptides (see Table 2 for sequence) or no peptide (CON) as control, washed thoroughly and mixed with wild type Stat3 protein. Bound proteins were separated by SDS-PAGE and immunoblotted using Stat3 mAb. Lane ST represents purified wild type Stat3 (0.6 μg) loaded directly onto the gel as a positive control.
To test the contribution of the E638 amide hydrogen to binding to G-CSFR Y704 and Y744 phosphododecapeptide, Stat3-E638P was generated by site-directed mutagenesis, which eliminated the amide hydrogen donor predicted to bind with oxygen within the +3 Q side chain.

Stat3-6M [4] = target: T6, Stat3-6M (Homo sapiens, UniProt P40763, C687A/E638L/Q692L/S691A/Y640F/Y657F); experiment: Mirror resonance affinity assay (resonant mirror biosensor); assay type: binding
T6 construct: made in house; host or cells: Sf9 insect cells (baculovirus, pFastBac1)
T6 sequence (P40763 whole entry E638L/Y640F/Y657F/C687A/S691A/Q692L): as the sequence (P40763 whole entry) above, with E638L, Y640F, Y657F, C687A, S691A, Q692L counted along it
Experimental: (§4) Kinetics experiments were performed using an lasys Auto+ resonant mirror biosensor (Affinity Sensor, Paramus, N.J.) (see Sadowski et. al, 1986). Briefly, two-welled cuvettes coated on the bottom of each well with biotin were purchased from Affinity Sensor and prepared for immobilization of biotinylated peptides by coating each surface with 0.04 mg/ml NeutrAvidin (Pierce) and washing with PBS-T (20 mM Na Phosphate, 0.05% Tween-20). Biotinylated peptide (5 μg) was added into each well—experimental peptide to one well and control peptide to the other—and change in arc seconds monitored simultaneously in both wells using the biosensor until stable followed by washing with PBS-T. Real-time binding of Stat3 was conducted at 25° C. at a stir speed of 70 for 10 min starting at the lowest concentration of Stat3. The wells were washed out with three changes of 60 μl PBS-T, and dissociation was allowed to proceed for 5 min. Each well bottom was regenerated by washing with […] of 100 mM formic acid for 2 min and equilibrated with PBS-T for the next round of association assay. Data were collected automatically and analyzed with the FASTplot and GraFit software (see Sheinerman et. al, 2003).
(§5) Mirror resonance affinity assay. Two cells of a biotin-coated cuvette pretreated with saturating amounts of NeutrAvidin. One well of the cuvette was pretreated with biotinylated phosphopeptide based on Y1068 (pY1068, left panel), while the other well was pretreated with biotinylated non-phosphorylated peptide Y1068 (Y1068, right panel) as a control for non-specific binding. Wild type or mutated Stat3 protein was added in the concentrations indicated to each of the two cells and mirror resonance measurements recorded continuously for 10 min as shown.

Stat3-3M [5] = target: T7, Stat3-3M (Homo sapiens, UniProt P40763, E638L/Y640F/Y657F); experiment: as above; assay type: binding
T7 construct: made in house; host or cells: Sf9 insect cells (baculovirus, pFastBac1)
T7 sequence (P40763 whole entry E638L/Y640F/Y657F): as the sequence (P40763 whole entry) above, with E638L, Y640F, Y657F counted along it
Experimental: as §4, §5

Stat3-4M [6] = target: T2, Stat3-4M; experiment: as above; assay type: binding
Experimental: as §4, §5

wild type Stat3 [7] = target: T1, wild type Stat3; experiment: as above; assay type: binding
Experimental: as §4, §5
To obtain quantitative kinetic information about the binding of Stat3 to G-CSFR Y704 and Y744 including association rates (kass), disassociation rates (kdiss) and dissociation equilibrium constants (KD), real-time affinity measurements using a mirror resonance biosensor were performed. The biosensor exploits surface plasmon resonance to measure in real time the alteration in the angle of a laser light reflected from a surface upon which binding events are occurring. Biotinylated peptides were immobilized onto the bottom surface of cuvette wells pre-coated with NeutrAvidin. The interaction of peptides with Stat3 added at different concentrations was measured in real time as altered deflection of a laser light striking the bottom surface of the cuvette; the alterations in the deflection angle measured in arc seconds was analyzed with GraFit software. […] The slightly lower KD for Y704 vs. Y744 is attributable to a faster association rate of Stat3 binding to this phosphododecapeptide.

Stat3-6M [8] = target: Stat3-6M (human, UniProt P40763 1-770, limits assumed); experiment: peptide pull-down: biotinylated peptide on NeutrAvidin agarose, purified His-tagged Stat3 protein added, bound protein immunoblotted with Stat3 mAb
Stat3-6M (human, UniProt P40763 1-770, limits assumed), sequence (P40763 other isoform, or with tags, fused parts or gaps limits assumed): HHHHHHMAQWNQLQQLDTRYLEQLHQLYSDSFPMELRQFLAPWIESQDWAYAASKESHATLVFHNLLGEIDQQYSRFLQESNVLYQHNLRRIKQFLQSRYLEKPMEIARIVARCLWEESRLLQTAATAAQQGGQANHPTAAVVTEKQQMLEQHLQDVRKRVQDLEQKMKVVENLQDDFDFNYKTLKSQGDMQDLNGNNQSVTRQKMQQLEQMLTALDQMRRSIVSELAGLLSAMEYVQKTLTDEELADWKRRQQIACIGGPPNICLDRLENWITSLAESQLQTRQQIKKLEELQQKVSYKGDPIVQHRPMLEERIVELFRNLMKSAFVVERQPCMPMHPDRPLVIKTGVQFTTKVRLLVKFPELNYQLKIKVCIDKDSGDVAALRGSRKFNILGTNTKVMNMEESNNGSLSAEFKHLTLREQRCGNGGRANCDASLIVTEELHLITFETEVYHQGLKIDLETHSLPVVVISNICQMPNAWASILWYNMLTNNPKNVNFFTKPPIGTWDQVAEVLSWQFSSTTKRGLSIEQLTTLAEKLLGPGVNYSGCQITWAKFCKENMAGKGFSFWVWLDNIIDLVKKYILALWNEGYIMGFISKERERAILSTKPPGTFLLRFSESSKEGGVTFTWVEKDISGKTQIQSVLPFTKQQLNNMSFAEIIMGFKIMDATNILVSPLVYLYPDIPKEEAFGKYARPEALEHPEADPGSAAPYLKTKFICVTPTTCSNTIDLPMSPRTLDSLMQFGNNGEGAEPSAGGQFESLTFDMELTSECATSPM

[9] = target: T8, wild type Stat3 (recombinant human Stat3alpha with N-terminal 6-histidine tag) (human, UniProt P40763 1-770); experiment: as above
T8 construct: Expressed in Sf9 cells and purified on Ni-NTA for peptide assays; expressed from pcDNA3.1 in 293T cells for the G-CSFR co-immunoprecipitation; also called WT; purified Stat3
T8 sequence (P40763 other isoform, or with tags, fused parts or gaps limits assumed): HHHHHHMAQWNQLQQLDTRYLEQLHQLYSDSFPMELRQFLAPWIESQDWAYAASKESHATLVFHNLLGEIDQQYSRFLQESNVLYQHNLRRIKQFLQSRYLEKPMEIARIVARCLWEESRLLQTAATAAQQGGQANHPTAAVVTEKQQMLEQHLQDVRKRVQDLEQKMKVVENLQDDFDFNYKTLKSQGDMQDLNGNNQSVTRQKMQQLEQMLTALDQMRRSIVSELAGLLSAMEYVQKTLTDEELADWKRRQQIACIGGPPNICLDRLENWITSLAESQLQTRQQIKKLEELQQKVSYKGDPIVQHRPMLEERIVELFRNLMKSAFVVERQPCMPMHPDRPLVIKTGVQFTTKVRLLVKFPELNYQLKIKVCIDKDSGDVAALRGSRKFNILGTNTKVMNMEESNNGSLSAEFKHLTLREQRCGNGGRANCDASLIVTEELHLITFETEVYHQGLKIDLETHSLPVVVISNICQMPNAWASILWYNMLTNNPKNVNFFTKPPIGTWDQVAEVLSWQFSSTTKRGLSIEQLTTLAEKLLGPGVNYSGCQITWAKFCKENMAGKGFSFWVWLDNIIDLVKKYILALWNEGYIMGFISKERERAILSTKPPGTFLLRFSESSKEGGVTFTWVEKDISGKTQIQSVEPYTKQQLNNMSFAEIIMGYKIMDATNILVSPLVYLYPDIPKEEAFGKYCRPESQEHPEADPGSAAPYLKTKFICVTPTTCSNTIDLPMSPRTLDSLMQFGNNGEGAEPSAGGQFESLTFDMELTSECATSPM

Stat3-E638P [10] = target: T9, Stat3-E638P (human, UniProt P40763 1-770); experiment: as above
T9 construct: Produced in Sf9 cells; CD spectrum essentially identical to wild type
T9 sequence (P40763 other isoform, or with tags, fused parts or gaps E638P E638P limits assumed): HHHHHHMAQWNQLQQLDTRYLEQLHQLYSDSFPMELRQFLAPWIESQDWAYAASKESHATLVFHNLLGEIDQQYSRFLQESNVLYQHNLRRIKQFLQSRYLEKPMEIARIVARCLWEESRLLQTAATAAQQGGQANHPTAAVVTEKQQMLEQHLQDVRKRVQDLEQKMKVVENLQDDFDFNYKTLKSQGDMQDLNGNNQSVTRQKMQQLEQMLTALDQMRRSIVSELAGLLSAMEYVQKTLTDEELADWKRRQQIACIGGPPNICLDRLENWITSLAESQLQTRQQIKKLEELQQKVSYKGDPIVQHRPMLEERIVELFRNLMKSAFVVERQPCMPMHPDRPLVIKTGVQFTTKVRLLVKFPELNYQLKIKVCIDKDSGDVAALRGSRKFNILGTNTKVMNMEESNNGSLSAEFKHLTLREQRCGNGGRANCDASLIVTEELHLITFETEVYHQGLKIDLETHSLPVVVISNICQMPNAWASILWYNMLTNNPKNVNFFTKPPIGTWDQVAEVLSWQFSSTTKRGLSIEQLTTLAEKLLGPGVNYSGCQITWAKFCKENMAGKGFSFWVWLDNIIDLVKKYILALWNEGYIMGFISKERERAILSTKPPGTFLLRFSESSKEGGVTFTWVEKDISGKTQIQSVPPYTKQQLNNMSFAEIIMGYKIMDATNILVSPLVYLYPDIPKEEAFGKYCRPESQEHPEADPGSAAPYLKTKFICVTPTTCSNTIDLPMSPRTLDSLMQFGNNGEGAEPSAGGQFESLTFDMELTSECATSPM

Stat3-3M [11] = target: Stat3-3M (human, UniProt P40763 1-770, limits assumed); experiment: as above
Stat3-3M (human, UniProt P40763 1-770, limits assumed), sequence (P40763 other isoform, or with tags, fused parts or gaps limits assumed): as the sequence (P40763 other isoform, or with tags, fused parts or gaps E638P E638P limits assumed) above, with P644L, Y646F, Y663F counted along it

Stat3-4M [12] = target: Stat3-4M (human, UniProt P40763 1-770, limits assumed); experiment: as above
Stat3-4M (human, UniProt P40763 1-770, limits assumed), sequence (P40763 other isoform, or with tags, fused parts or gaps limits assumed): as the sequence (P40763 other isoform, or with tags, fused parts or gaps E638P E638P limits assumed) above, with P644E, Y663F, C693A, S697A, Q698L counted along it

## LPVPEYINQSVP [unphosphorylated Y1068 dodecapeptide]
Wild type Stat3 [1]
  Stat3 detected in peptide pull-down (Stat3 immunoblot): little to no Stat3 was detected

## VQNPV(pY)HNQPLN (VQNPV[pY]HNQPLN) [Y1086 PDP]
Stat3-4M [2]
  level of Stat3-4M bound in peptide affinity immunoblot: equal to or greater than wild type Stat3
Stat3-3M+K591L
  binding of Stat3-3M+K591L in peptide pull-down: elimination of binding
Stat3-3M+R609L
  binding of Stat3-3M+R609L in peptide pull-down: elimination of binding
Stat3-E638P [3]
  binding of Stat3-E638P in peptide affinity immunoblot: no binding

## CC[C@H](C)[C@H](NC(=O)[C@H](Cc1ccc(OP(=O)(O)O)cc1)NC(=O)[C@H](CCC(=O)O)NC(=O)[C@@H]1CCCN1C(=O)[C@@H](NC(=O)[C@@H]1CCCN1C(=O)[C@H](CC(C)C)NC(=O)CCCCCNC(=O)CCCC[C@@H]1SC[C@@H]2NC(=O)N[C@@H]21)C(C)C)C(=O)N[C@@H](CC(N)=O)C(=O)N[C@@H](CCC(N)=O)C(=O)N[C@@H](CO)C(=O)N[C@H](C(=O)N1CCC[C@H]1C(=O)O)C(C)C [Y1068 PDP, LPVPE(pY)INQSVP]
Stat3-6M [4]
  Kd: 249 ± 22 nM
Stat3-3M [5]
  Kd: 177 nM
Stat3-4M [6]
  Kd: 271 ± 48 nM
Wild type Stat3 [7]
  Kd: 223 nM

## {d‑Biotin‑LC}-PGPGHYLRCDST [Y744 non-phosphorylated dodecapeptide (G-CSFR)]
Stat3-6M [8]
  binding result: no binding
[9]
  binding result: no binding
Stat3-E638P [10]
  binding result: no binding
Stat3-3M [11]
  binding result: no binding
Stat3-4M [12]
  binding result: no binding

— patent US20060148715A1, “Structural requirements for STAT3 binding and recruitment to phosphotyrosine ligands” (BAYLOR COLLEGE OF MEDICINE, priority 2004, published 2006)
